Data from the Human Domainome abundance scans (Beltran et al. 2025).
± gives the uncertainty stated by the source.

Assay: abundance fitness (aPCA) (normalised: wild type 0, dead -1); higher = more abundant; growth selection in yeast, the domain comes from the species named
Conditions: Homo sapiens

E3 ubiquitin-protein ligase NEDD4-like E232I, Q96PU5
abundance fitness: -0.5 ± 0.31

E3 ubiquitin-protein ligase NEDD4-like E232K, Q96PU5
abundance fitness: -1.37 ± 0.43

E3 ubiquitin-protein ligase NEDD4-like E232L, Q96PU5
abundance fitness: -0.158 ± 0.19

E3 ubiquitin-protein ligase NEDD4-like E232M, Q96PU5
abundance fitness: -0.402 ± 0.12

E3 ubiquitin-protein ligase NEDD4-like E232N, Q96PU5
abundance fitness: 0.022 ± 0.072

E3 ubiquitin-protein ligase NEDD4-like E232P, Q96PU5
abundance fitness: 0.216 ± 0.17

E3 ubiquitin-protein ligase NEDD4-like E232R, Q96PU5
abundance fitness: -0.999 ± 0.24

E3 ubiquitin-protein ligase NEDD4-like E232V, Q96PU5
abundance fitness: -0.901 ± 0.18

E3 ubiquitin-protein ligase NEDD4-like E232W, Q96PU5
abundance fitness: -0.98 ± 0.33

E3 ubiquitin-protein ligase NEDD4-like E232Y, Q96PU5
abundance fitness: -0.413 ± 0.27

E3 ubiquitin-protein ligase NEDD4-like G198A, Q96PU5
abundance fitness: -0.032 ± 0.069

E3 ubiquitin-protein ligase NEDD4-like G198C, Q96PU5
abundance fitness: -0.171 ± 0.092

E3 ubiquitin-protein ligase NEDD4-like G198E, Q96PU5
abundance fitness: -0.691 ± 0.092

E3 ubiquitin-protein ligase NEDD4-like G198F, Q96PU5
abundance fitness: -0.15 ± 0.086

E3 ubiquitin-protein ligase NEDD4-like G198H, Q96PU5
abundance fitness: -0.197 ± 0.11

E3 ubiquitin-protein ligase NEDD4-like G198I, Q96PU5
abundance fitness: -0.765 ± 0.15

E3 ubiquitin-protein ligase NEDD4-like G198K, Q96PU5
abundance fitness: -0.103 ± 0.087

E3 ubiquitin-protein ligase NEDD4-like G198L, Q96PU5
abundance fitness: -0.209 ± 0.054

E3 ubiquitin-protein ligase NEDD4-like G198M, Q96PU5
abundance fitness: -0.058 ± 0.092

E3 ubiquitin-protein ligase NEDD4-like G198N, Q96PU5
abundance fitness: -0.095 ± 0.11

E3 ubiquitin-protein ligase NEDD4-like G198P, Q96PU5
abundance fitness: -0.077 ± 0.074

E3 ubiquitin-protein ligase NEDD4-like G198Q, Q96PU5
abundance fitness: -0.075 ± 0.06

E3 ubiquitin-protein ligase NEDD4-like G198R, Q96PU5
abundance fitness: -0.238 ± 0.06

E3 ubiquitin-protein ligase NEDD4-like G198S, Q96PU5
abundance fitness: -0.139 ± 0.057

E3 ubiquitin-protein ligase NEDD4-like G198T, Q96PU5
abundance fitness: -0.239 ± 0.075

E3 ubiquitin-protein ligase NEDD4-like G198V, Q96PU5
abundance fitness: -0.291 ± 0.062

E3 ubiquitin-protein ligase NEDD4-like G198W, Q96PU5
abundance fitness: -0.324 ± 0.095

E3 ubiquitin-protein ligase NEDD4-like G198Y, Q96PU5
abundance fitness: -0.049 ± 0.069

E3 ubiquitin-protein ligase NEDD4-like G207A, Q96PU5
abundance fitness: -0.252 ± 0.052

E3 ubiquitin-protein ligase NEDD4-like G207D, Q96PU5
abundance fitness: -0.162 ± 0.056

E3 ubiquitin-protein ligase NEDD4-like G207E, Q96PU5
abundance fitness: -0.312 ± 0.066

E3 ubiquitin-protein ligase NEDD4-like G207F, Q96PU5
abundance fitness: -0.423 ± 0.056

E3 ubiquitin-protein ligase NEDD4-like G207H, Q96PU5
abundance fitness: -0.171 ± 0.066

E3 ubiquitin-protein ligase NEDD4-like G207I, Q96PU5
abundance fitness: -0.96 ± 0.061

E3 ubiquitin-protein ligase NEDD4-like G207K, Q96PU5
abundance fitness: -0.128 ± 0.063

E3 ubiquitin-protein ligase NEDD4-like G207L, Q96PU5
abundance fitness: -0.432 ± 0.052

E3 ubiquitin-protein ligase NEDD4-like G207M, Q96PU5
abundance fitness: -0.27 ± 0.067

E3 ubiquitin-protein ligase NEDD4-like G207N, Q96PU5
abundance fitness: 0.042 ± 0.067

E3 ubiquitin-protein ligase NEDD4-like G207P, Q96PU5
abundance fitness: -0.756 ± 0.053

E3 ubiquitin-protein ligase NEDD4-like G207Q, Q96PU5
abundance fitness: -0.192 ± 0.069

E3 ubiquitin-protein ligase NEDD4-like G207R, Q96PU5
abundance fitness: -0.252 ± 0.051

E3 ubiquitin-protein ligase NEDD4-like G207S, Q96PU5
abundance fitness: -0.182 ± 0.048

E3 ubiquitin-protein ligase NEDD4-like G207T, Q96PU5
abundance fitness: -0.419 ± 0.055

E3 ubiquitin-protein ligase NEDD4-like G207V, Q96PU5
abundance fitness: -0.803 ± 0.056

E3 ubiquitin-protein ligase NEDD4-like G207W, Q96PU5
abundance fitness: -0.738 ± 0.077

E3 ubiquitin-protein ligase NEDD4-like G207Y, Q96PU5
abundance fitness: -0.397 ± 0.06

E3 ubiquitin-protein ligase NEDD4-like H186A, Q96PU5
abundance fitness: -0.362 ± 0.069

E3 ubiquitin-protein ligase NEDD4-like H186C, Q96PU5
abundance fitness: -0.282 ± 0.093

E3 ubiquitin-protein ligase NEDD4-like H186D, Q96PU5
abundance fitness: 0.168 ± 0.082

E3 ubiquitin-protein ligase NEDD4-like H186E, Q96PU5
abundance fitness: -1.69 ± 0.14

E3 ubiquitin-protein ligase NEDD4-like H186F, Q96PU5
abundance fitness: -0.111 ± 0.12

E3 ubiquitin-protein ligase NEDD4-like H186G, Q96PU5
abundance fitness: -0.461 ± 0.067

E3 ubiquitin-protein ligase NEDD4-like H186I, Q96PU5
abundance fitness: 0.086 ± 0.12

E3 ubiquitin-protein ligase NEDD4-like H186K, Q96PU5
abundance fitness: -0.222 ± 0.079

E3 ubiquitin-protein ligase NEDD4-like H186L, Q96PU5
abundance fitness: -0.185 ± 0.074

E3 ubiquitin-protein ligase NEDD4-like H186M, Q96PU5
abundance fitness: -0.349 ± 0.1

E3 ubiquitin-protein ligase NEDD4-like H186N, Q96PU5
abundance fitness: -0.123 ± 0.13

E3 ubiquitin-protein ligase NEDD4-like H186P, Q96PU5
abundance fitness: -0.292 ± 0.081

E3 ubiquitin-protein ligase NEDD4-like H186Q, Q96PU5
abundance fitness: -0.511 ± 0.1

E3 ubiquitin-protein ligase NEDD4-like H186R, Q96PU5
abundance fitness: -0.59 ± 0.061

E3 ubiquitin-protein ligase NEDD4-like H186S, Q96PU5
abundance fitness: -0.185 ± 0.076

E3 ubiquitin-protein ligase NEDD4-like H186T, Q96PU5
abundance fitness: -0.288 ± 0.11

E3 ubiquitin-protein ligase NEDD4-like H186V, Q96PU5
abundance fitness: -0.045 ± 0.058

E3 ubiquitin-protein ligase NEDD4-like H186W, Q96PU5
abundance fitness: -1.24 ± 0.064

E3 ubiquitin-protein ligase NEDD4-like H186Y, Q96PU5
abundance fitness: -0.095 ± 0.12

E3 ubiquitin-protein ligase NEDD4-like H214F, Q96PU5
abundance fitness: -0.07 ± 0.1

E3 ubiquitin-protein ligase NEDD4-like H214I, Q96PU5
abundance fitness: -0.005 ± 0.078

E3 ubiquitin-protein ligase NEDD4-like H214K, Q96PU5
abundance fitness: 0.032 ± 0.081

E3 ubiquitin-protein ligase NEDD4-like H214L, Q96PU5
abundance fitness: -0.05 ± 0.051

E3 ubiquitin-protein ligase NEDD4-like H214M, Q96PU5
abundance fitness: 0.011 ± 0.083

E3 ubiquitin-protein ligase NEDD4-like H214N, Q96PU5
abundance fitness: -0.032 ± 0.11

E3 ubiquitin-protein ligase NEDD4-like H214P, Q96PU5
abundance fitness: -0.063 ± 0.077

E3 ubiquitin-protein ligase NEDD4-like H214Q, Q96PU5
abundance fitness: -0.211 ± 0.089

E3 ubiquitin-protein ligase NEDD4-like H214R, Q96PU5
abundance fitness: -0.005 ± 0.068

E3 ubiquitin-protein ligase NEDD4-like H214S, Q96PU5
abundance fitness: -0.035 ± 0.057

E3 ubiquitin-protein ligase NEDD4-like H214T, Q96PU5
abundance fitness: -0.062 ± 0.067

E3 ubiquitin-protein ligase NEDD4-like H214V, Q96PU5
abundance fitness: -0.026 ± 0.058

E3 ubiquitin-protein ligase NEDD4-like H214W, Q96PU5
abundance fitness: -0.068 ± 0.066

E3 ubiquitin-protein ligase NEDD4-like H214Y, Q96PU5
abundance fitness: 0.035 ± 0.088

E3 ubiquitin-protein ligase NEDD4-like H222C, Q96PU5
abundance fitness: -0.052 ± 0.094

E3 ubiquitin-protein ligase NEDD4-like H222D, Q96PU5
abundance fitness: 0.071 ± 0.067

E3 ubiquitin-protein ligase NEDD4-like H222E, Q96PU5
abundance fitness: -0.013 ± 0.083

E3 ubiquitin-protein ligase NEDD4-like H222F, Q96PU5
abundance fitness: -0.052 ± 0.089

E3 ubiquitin-protein ligase NEDD4-like H222G, Q96PU5
abundance fitness: -0.07 ± 0.06

E3 ubiquitin-protein ligase NEDD4-like H222I, Q96PU5
abundance fitness: -0.251 ± 0.1

E3 ubiquitin-protein ligase NEDD4-like H222K, Q96PU5
abundance fitness: 0.251 ± 0.1

E3 ubiquitin-protein ligase NEDD4-like H222L, Q96PU5
abundance fitness: -0.088 ± 0.056

E3 ubiquitin-protein ligase NEDD4-like H222M, Q96PU5
abundance fitness: 0.173 ± 0.093

E3 ubiquitin-protein ligase NEDD4-like H222N, Q96PU5
abundance fitness: -0.027 ± 0.11

E3 ubiquitin-protein ligase NEDD4-like H222P, Q96PU5
abundance fitness: -0.133 ± 0.063

E3 ubiquitin-protein ligase NEDD4-like H222Q, Q96PU5
abundance fitness: -0.022 ± 0.1

E3 ubiquitin-protein ligase NEDD4-like H222R, Q96PU5
abundance fitness: -0.016 ± 0.057

E3 ubiquitin-protein ligase NEDD4-like H222T, Q96PU5
abundance fitness: 0.081 ± 0.076

E3 ubiquitin-protein ligase NEDD4-like H222V, Q96PU5
abundance fitness: -0.045 ± 0.059

E3 ubiquitin-protein ligase NEDD4-like H222W, Q96PU5
abundance fitness: -0.218 ± 0.071
